{
  "source": "paper PMC5278647",
  "about": "(Biochemistry, 2016)",
  "target": "T1, his-tagged F110A variant of human ferrochelatase (FECH), recombinant from E. coli (human, UniProt P22830 55-423, F110A)",
  "T1 sequence (looked up)": "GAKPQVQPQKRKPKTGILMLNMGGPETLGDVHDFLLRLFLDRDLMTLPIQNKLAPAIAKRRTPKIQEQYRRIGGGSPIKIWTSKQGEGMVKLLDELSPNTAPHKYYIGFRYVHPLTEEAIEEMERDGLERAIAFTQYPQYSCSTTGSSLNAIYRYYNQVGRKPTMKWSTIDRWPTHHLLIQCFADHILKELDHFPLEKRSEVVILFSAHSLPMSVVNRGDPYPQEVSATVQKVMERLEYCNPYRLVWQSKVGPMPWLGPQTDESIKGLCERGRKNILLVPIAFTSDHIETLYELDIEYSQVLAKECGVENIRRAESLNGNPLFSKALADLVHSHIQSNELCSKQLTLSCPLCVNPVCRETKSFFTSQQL",
  "experiment": "pull-down",
  "data": [
    {"binder": "non-tagged full length human PGRMC1, recombinant from E. coli (natural protein) not shown", "values": [
      {"measurement": "fold of PGRMC1 recovered (against wild-type FECH)", "value": "> 2", "unit": "fold"}
    ]}
  ]
}
